From article PMC6817665 (iScience, 2019)
Several values for one entry are separate records, joined by “and”; a condition that tells them apart may be missing. Equal entries are not always repeated.

Columns and labels:
SEC-MALS = target: the molecule itself; experiment: SEC-MALS
M1 (linear) GST-Ub2 = M1 (linear) GST-Ub2 (UniProt P0CG48); experiment: BLI

B1: CEP55 His-NOA (His-tag version of the human CEP55 NOA fragment, residues 304–396) (domain or fragment)
chain: IQKLREENDIARGKLEEEKKRSEELLSQVQFLYTSLLKQQEEQTRVALLEQQMQACTLDFENEKLDRQHVQHQLHVILKELRKARNQITQLES
In the case of B1, the “fold weaker dimerization affinity than NEMO NOA” value (SEC-MALS) is reported as 6 fold and the “stoichiometry N” value (SEC-MALS) is reported as 2 and 6.

ESLVECPKCNIQYPATEHRDLLVHVEYCSK [Strep-tag II CEP55 ZF (StrepII-tag version of CEP55 ZF peptide, residues 435–464)] was tested, and the Kd (M1 (linear) GST-Ub2) was 1600 nM.

For ESLVECPKCNIQYPATEHRDLLVHVAYCSK [StrepII-tag version of CEP55 ZF mutant E460A], the “fold reduction of binding affinity against WT” value (M1 (linear) GST-Ub2) was 26 fold.
